In paper doi:10.1101/2022.07.04.498665 (bioRxiv, 2022):
“And” between values parts separate entries of the source, which are not always exact repeats. Identical values can stand only once.

Legend:
SAXS = biological target: the molecule itself; assay: SAXS
SEC = biological target: the molecule itself; assay: SEC

B1: Mu8.1 (natural protein)
chain: GENSDNLTHCRLFEFRLCLLECMSLTLDHCYARCTTVITQIHGSDTNRFDCTIFKTCYYRCYVLGKTEDHCWKGTATSVTGDVGDLEFC
stoichiometry N (SAXS): 4 and 6 | stoichiometry N (SEC): 2
